According to patent US20080213273A1:

How the values were obtained:
[1] = target: human CD20 (on the human B-cell lymphoma cell line WIL2-S and other CD20+ human B-cell lines) (human) (UniProt P11836); test: cell-based or functional assay
[2] = target: monkey CD20 (on monkey peripheral blood cells) (monkey) (UniProt M4ZHZ6); test: flow cytometry on monkey peripheral blood, N = 3, mean (SD 3.3); control column 0.2 (0.1)
Chain of UniProt M4ZHZ6 (M4ZHZ6 entry or part of it limits assumed): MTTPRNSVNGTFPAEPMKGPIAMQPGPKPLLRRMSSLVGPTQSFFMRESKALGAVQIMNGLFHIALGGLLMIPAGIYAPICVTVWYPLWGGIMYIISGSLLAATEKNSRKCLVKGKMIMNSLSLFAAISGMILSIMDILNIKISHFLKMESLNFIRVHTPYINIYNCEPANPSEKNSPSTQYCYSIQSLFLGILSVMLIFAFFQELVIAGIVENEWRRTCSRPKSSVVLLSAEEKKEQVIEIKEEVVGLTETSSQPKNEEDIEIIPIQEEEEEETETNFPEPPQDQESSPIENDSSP

Chain of UniProt P11836 (P11836 whole entry): as the sequence (M4ZHZ6 entry or part of it limits assumed) above, with P25S, L31F, A51T, V157A, R217K, S226N, V227I, V239T counted along it

apoptosis of Ramos B-cells, annexin V/propidium iodide flow cytometry [1]: 60 % cell lysis | percent positive staining cells [2]: 21.5%
Substance: rituximab (antibody)
